Consider six molecules from article PMC12120888, “Phosphorylation of MdWRKY70L by MdMPK6/02G mediates reactive oxygen accumulation to regulate apple fruit senescence”.

Data set [1] addresses T1, MdWRKY70L (Malus domestica, UniProt A0A7S5EAY7 1-303).
T1 sequence: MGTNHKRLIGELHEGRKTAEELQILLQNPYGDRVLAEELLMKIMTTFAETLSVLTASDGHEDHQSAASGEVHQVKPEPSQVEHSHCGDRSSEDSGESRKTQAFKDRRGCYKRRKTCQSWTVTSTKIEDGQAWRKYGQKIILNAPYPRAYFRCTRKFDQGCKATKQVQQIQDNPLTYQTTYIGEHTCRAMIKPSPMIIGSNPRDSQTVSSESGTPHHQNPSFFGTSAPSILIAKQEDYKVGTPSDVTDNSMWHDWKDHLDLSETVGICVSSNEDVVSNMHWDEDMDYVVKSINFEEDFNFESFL
Put plainly: EMSA; LightShift Chemiluminescent EMSA kit (Thermo); buffer, salt, pH and temperature not stated. Conditions: protein: recombinant; tags: GST (Results); His (EMSA Methods, pET32a); label: 3' biotin, both strands; blunt.

Data set [2] deals with T1, MdWRKY70L. Put plainly: competition; 25x, 50x, 100x cold probe vs hot probe N1; LightShift Chemiluminescent EMSA kit (Thermo); buffer, salt, pH and temperature not stated. Conditions: protein: recombinant; tags: GST (Results); His (EMSA Methods, pET32a); blunt. (A gel shift assay detects complexes by their altered migration in electrophoresis.)
Data set [3] concerns the target T1, MdWRKY70L. Put plainly: competition; 25x, 50x, 100x cold probe vs hot probe N3; LightShift Chemiluminescent EMSA kit (Thermo); buffer, salt, pH and temperature not stated. The settings on record: protein: recombinant; tags: GST (Results); His (EMSA Methods, pET32a); blunt.

B1: MdZAT12 W-box hot probe (dsDNA)
DNA 1: CATTGATCTGGATTTCTGTGCTGACTCAGACTCATCGTGGATGCTT
DNA 2: AAGCATCCACGATGAGTCTGAGTCAGCACAGAAATCCAGATCAATG
As to B1, the binding result with MdWRKY70L [1] is “binds”.

B2: MdZAT12 W-box cold probe (dsDNA)
DNA 1: CATTGATCTGGATTTCTGTGCTGACTCAGACTCATCGTGGATGCTT
DNA 2: AAGCATCCACGATGAGTCTGAGTCAGCACAGAAATCCAGATCAATG
As for B2, in the data set with MdWRKY70L [2], the binding result is on record as “binds”.

B3: MdZAT12 W-box mutant probe (dsDNA)
DNA 1: CATTGATCTGGATTTCTGTGCGGCCGCAGACTCATCGTGGATGCTT
DNA 2: AAGCATCCACGATGAGTCTGCGGCCGCACAGAAATCCAGATCAATG
Regarding B3, in the data set with MdWRKY70L [1], the binding result is “no binding”.

B4: MdSAG101 W-box hot probe (dsDNA)
DNA 1: TCTATATAAAGAGAGACATATTGACCATTCCGGTATCCTCTTCTCT
DNA 2: AGAGAAGAGGATACCGGAATGGTCAATATGTCTCTCTTTATATAGA
As for B4, the binding result in the data set with MdWRKY70L [1] is recorded as “binds”.

B5: MdSAG101 W-box cold probe (dsDNA)
DNA 1: TCTATATAAAGAGAGACATATTGACCATTCCGGTATCCTCTTCTCT
DNA 2: AGAGAAGAGGATACCGGAATGGTCAATATGTCTCTCTTTATATAGA
Consider B5, for which the binding result with MdWRKY70L [3] was “binds”.

B6: MdSAG101 W-box mutant probe (dsDNA)
DNA 1: TCTATATAAAGAGAGACATATCGGCTATTCCGGTATCCTCTTCTCT
DNA 2: AGAGAAGAGGATACCGGAATAGCCGATATGTCTCTCTTTATATAGA
In the case of B6, in the data set with MdWRKY70L [1], the binding result is reported as “no binding”.
